Test results from publication PMC5773591, “Structural basis of trans-synaptic interactions between PTPδ and SALMs for inducing synapse formation” (Nature Communications, 2018).

B1: human SALM5 LRR–Ig-His6 (residues 18–378) [human] / itself (parent)
chain: QICPKRCVCQILSPNLATLCAKKGLLFVPPNIDRRTVELRLADNFVTNIKRKDFANMTSLVDLTLSRNTISFITPHAFADLRNLRALHLNSNRLTKITNDMFSGLSNLHHLILNNNQLTLISSTAFDDVFALEELDLSYNNLETIPWDAVEKMVSLHTLSLDHNMIDNIPKGTFSHLHKMTRLDVTSNKLQKLPPDPLFQRAQVLATSGIISPSTFALSFGGNPLHCNCELLWLRRLSREDDLETCASPPLLTGRYFWSIPEEEFLCEPPLITRHTHEMRVLEGQRATLRCKARGDPEPAIHWISPEGKLISNATRSLVYDNGTLDILITTVKDTGAFTCIASNPAGEATQIVDLHIIKLP

Variants of: B1
Experiment: SEC-MALS
Settings: with itself; read off a plot

screen value | Variant
56 kDa | QICPKRCVCQILSPNLATLCAKKGLLFVPPNIDRRTVELRLADNFVTNIKRKDFANMTSLVDLTLSRNTISFITPHAFADLRNLRALHLNSNRLTKITNDMFSGLSNLHHLILNNNQLTLISSTAFDDVFALEELDLSYNALETIPWDAVEKMVSLHTLSLDHNMIDNIPKGTFSHLHKMTRLDVTSNKLQKLPPDPLFQRAQVLATSGIISPSTFALSFGGNPLHCNCELLWLRRLSREDDLETCASPPLLTGRYFWSIPEEEFLCEPPLITRHTHEMRVLEGQRATLRCKARGDPEPAIHWISPEGKLISNATRSLVYDNGTLDILITTVKDTGAFTCIASNPAGEATQIVDLHIIKLP [chain 1 N141A]
